We go through two molecules from publication PMC9870165, “Structure and neutralization mechanism of a human antibody targeting a complex Epitope on Zika virus” (PLOS Pathogens, 2023).

The target of experiment [1] is T1, recombinant ZIKV E protein (ectodomain of Zika virus envelope glycoprotein E) (Zika virus; PDB 8DV6 source …).
T1 construct: also called soluble E; E-dimer
Briefly: crystal structure; recombinant ZIKV E and G9E Fab mixed 1:1.2 at room temperature for 30 min, complex purified on Superdex 200-increase; crystals in 100 mM HEPES pH 7.5, 10% (w/v) PEG 8000; 3.4 Å. To be noted: both partners purified.

Experiment [2] deals with T2, ZIKV E protein on wild-type Zika virus H/PF/2013 in culture supernatant (Zika virus strain H/PF/2013, UniProt A0A024B7W1).
T2 construct: also called WT ZIKV; ZIKV H/PF/2013; source: ZIKV in culture supernatant
The experiment in a line: ELISA; ZIKV capture ELISA: virus (WT or rZIKV-D67N) in culture supernatant captured by plate-bound mAb 4G2; mAbs added 1 h at 37°C; anti-human Fc alkaline phosphatase; signal normalized to ZKA-190. To be noted: one partner purified.

B1: G9E Fab (antigen binding fragment of human monoclonal antibody G9E, wild type) (Fab, V domains shown)
VH: RVHLVESGGGVVQPGRSLRLSCVASGFAFSNYHMHWVRQAPGKGLEWVAIIWDDGSDQYYADSVKGRFTISRDNSKNTLFLQMNRLRAEDTALYYCVGGSSAYNGDNGWREAASLDDWGQGTLVTVSS
VL: QSALTQPASVSGSPGQSITIFCSGSSNDVGGYNYVSWYQQYPGKVPKLLIYDVNSRPSGVSNRFSGSKSGNTASLTISGLQAEDEADYYCSSYTSRRTWVFGGGTIVTVL
notes: also called Fab G9E; G9E WT
Turning to B1, in experiment [1], the binding result was “binds”.

B2: HuZV-67, humanized version of the ZIKV specific mouse EDIII mAb ZV-67, IgG1 format (antibody, V domains shown)
VH: QAQLQQSGTGLARPGASVKLSCKASGYTFTSYGISWVTQRAGQGLEWIGVIYPRSGNTYYNEKFRGKATLTADKSSSSAYMELRGLTAEDSAVYFCARENYGSVYWGQGTTLTVSS
VL: DIVMTQSQKFMSTSVGDRVSITCKASQNVGTAVAWYQQKPGQSPKLLIYSASNRYTGVPDRFTGSGSGTDFTLTISNMQSEDLADYFCQQFSSYPYTFGGGTKLEIK
notes: IgG1; source: Expi293, purified (MabSelect resin)
With B2, in experiment [2], the binding result is given as “binds”.
